The values that follow come from PMC5880071, “Self-sustained enzymatic cascade for the production of 2,5-furandicarboxylic acid from 5-methoxymethylfurfural” (Biotechnology for Biofuels, 2018).

Broadly, the Km is the substrate concentration at which the rate is half of its maximum. The kcat is the number of substrate molecules converted per active site and unit of time at saturation. As usually defined, the kcat/Km is the second-order rate constant that governs catalysis at low substrate concentration.

Data set [1] has as its target T1, UPO (unspecific peroxygenase), PaDa-I variant (Cyclocybe aegerita, UniProt B9W4V6, V100A/L110F/V118I/I291V/F354L).
T1 construct: gene APO1
Kind of data set: GC-MS product analysis (FFCA formed). The format is biochemical. To be noted: 1.5 mM MMFA, 5 µM UPO, 1.5 mM H2O2; ether cleavage.

Substrate in data set [2]: O=Cc1ccc(CO)o1
Kind of data set: purified protein. The format is biochemical, Pleurotus eryngii. The note with it: O2 co-substrate (air), sodium phosphate pH 7.0 (50 mM in Table 1, 100 mM in Methods), 25 °C.

Substrate in data set [3]: COCc1ccc(C=O)o1
In words: purified protein. The format is biochemical, Pleurotus eryngii. To be noted: O2 co-substrate (air), sodium phosphate pH 7.0 (50 mM in Table 1, 100 mM in Methods), 25 °C.

Substrate in data set [4]: O=Cc1ccc(C=O)o1
In words: purified protein. To be noted: O2 co-substrate (air), sodium phosphate pH 7.0 (50 mM in Table 1, 100 mM in Methods), 25 °C.

T1 sequence (B9W4V6 44-371 V100A/L110F/V118I/I291V/F354L): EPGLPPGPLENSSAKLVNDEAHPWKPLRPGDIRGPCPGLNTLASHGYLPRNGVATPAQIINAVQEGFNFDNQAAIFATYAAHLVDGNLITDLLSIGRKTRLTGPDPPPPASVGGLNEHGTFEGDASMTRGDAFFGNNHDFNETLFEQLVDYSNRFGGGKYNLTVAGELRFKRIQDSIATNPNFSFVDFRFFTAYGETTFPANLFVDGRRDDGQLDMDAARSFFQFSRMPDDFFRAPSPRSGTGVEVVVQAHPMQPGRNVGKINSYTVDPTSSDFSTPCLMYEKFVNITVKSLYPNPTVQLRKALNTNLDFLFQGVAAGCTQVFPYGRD

`COCc1ccc(C(=O)O)o1` [MMFA, 5-(Methoxymethyl)-2-furancarboxylic acid]: the “GC-MS product analysis (FFCA formed)” value in data set [1] is on record as “UPO is indeed capable to cleave the ether bond of MMFA”.

B1: AAO (aryl-alcohol oxidase) (Pleurotus eryngii) (protein)
chain: ADFDYVVVGAGNAGNVVAARLTEDPDVSVLVLEAGVSDENVLGAEAPLLAPGLVPNSIFDWNYTTTAQAGYNGRSIAYPRGRMLGGSSSVHYMVMMRGSTEDFDRYAAVTGDEGWNWDNIQQFVRKNEMVVPPADNHNTSGEFIPAVHGTNGSVSISLPGFPTPLDDRVLATTQEQSEEFFFNPDMGTGHPLGISWSIASVGNGQRSSSSTAYLRPAQSRPNLSVLINAQVTKLVNSGTTNGLPAFRCVEYAEQEGAPTTTVCAKKEVVLSAGSVGTPILLQLSGIGDENDLSSVGIDTIVNNPSVGRNLSDHLLLPAAFFVNSNQTFDNIFRDSSEFNVDLDQWTNTRTGPLTALIANHLAWLRLPSNSSIFQTFPDPAAGPNSAHWETIFSNQWFHPAIPRPDTGSFMSVTNALISPVARGDIKLATSNPFDKPLINPQYLSTEFDIFTMIQAVKSNLRFLSGQAWADFVIRPFDPRLRDPTDDAAIESYIRDNANTIFHPVGTASMSPRGASWGVVDPDLKVKGVDGLRIVDGSILPFAPNAHTQGPIYLVGKQGADLIKADQ
Turning to B1, in the data set “purified protein [2]”, the Michaelis constant (Km) was determined as 1.6 ± 0.2 mM, the kcat came out at 0.335 ± 0.01 s⁻¹ and the catalytic efficiency (kcat/Km) is 215 ± 20 M⁻¹ s⁻¹. Also, in the data set “purified protein [3]”, the Km was determined as 60.8 ± 5.5 mM, the catalytic constant (kcat) worked out at 0.263 ± 0.01 s⁻¹ and the kcat/Km was determined as 5.83 ± 0.333 M⁻¹ s⁻¹. Also, in “purified protein [4]”, the Km is 3.3 ± 0.2 mM, the turnover number (kcat) was determined as 0.523 s⁻¹ and the specificity constant (kcat/Km) is 157 M⁻¹ s⁻¹.
